Consider one substance from US20120107952A1.

Assay [1] addresses Bovine-biotinamidocaproyl-labeled Albumin (biotinylated-BSA) (bovine) (UniProt P02769). In words: MA-SPCL, 33 nM Qdots-streptavidin on biotinylated-BSA coated gold disk, in whole blood, 655 nm, 217 degrees.
The target is the same in assay [2]. As to the kind of experiment: MA-SPCL, 33 nM Qdots-streptavidin on biotinylated-BSA coated gold disk, emission at 217 degrees; similar after 30 min at room temperature.
Assay [3] has the same target. In words: MA-SPCL, 33 nM Qdots-streptavidin on biotinylated-BSA coated gold disk, in serum, 655 nm, 217 degrees.

Sequence of UniProt P02769 (P02769 25-607 limits assumed): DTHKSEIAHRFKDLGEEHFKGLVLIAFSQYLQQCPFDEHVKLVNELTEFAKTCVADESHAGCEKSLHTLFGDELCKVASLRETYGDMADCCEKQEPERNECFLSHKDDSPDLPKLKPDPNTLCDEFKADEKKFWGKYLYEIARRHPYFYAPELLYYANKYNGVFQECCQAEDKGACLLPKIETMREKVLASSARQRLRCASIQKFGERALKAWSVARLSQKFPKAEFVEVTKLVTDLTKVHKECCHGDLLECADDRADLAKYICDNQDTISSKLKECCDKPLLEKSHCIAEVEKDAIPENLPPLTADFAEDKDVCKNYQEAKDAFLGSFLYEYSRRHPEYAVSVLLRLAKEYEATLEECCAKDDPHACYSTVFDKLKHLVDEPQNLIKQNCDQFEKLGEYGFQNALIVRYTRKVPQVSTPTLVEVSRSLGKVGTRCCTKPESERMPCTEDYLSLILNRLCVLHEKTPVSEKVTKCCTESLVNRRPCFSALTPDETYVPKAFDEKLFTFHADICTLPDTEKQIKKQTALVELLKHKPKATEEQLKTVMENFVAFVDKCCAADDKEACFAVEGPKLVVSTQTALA

“Quantum dot 655-labeled streptavidin (Qdots-streptavidin) (from UniProt P22629 37-163)” had a peak luminescence intensity in whole blood relative to buffer in assay [1] of 20%. The substance further displayed a final luminescence intensity in assay [2] of 150 au. In assay [3], this substance displayed a peak luminescence intensity in serum relative to buffer of 75%.
